Measurements reported in the nanobody polyreactivity screen of Harvey et al. (2022).

Assay: yeast display, Sf9 membrane polyspecificity reagent, FACS + sequencing; frameworks hold sequencing errors
Summary of the method: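 Sorting gates, low and high (top ~1%), were placed on anti-HA fluorescence to track expression and on streptavidin fluorescence to track reagent binding. A clone's polyreactivity label is taken from the gate it came out of. The reagent was 10% biotinylated, detergent-solubilized Sf9 membrane, applied for 1 hour at 4 °C to galactose-induced yeast display cells.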

Row | Sequence | polyreactivity (PSR sort gate)
1 | QVQLVESGGGLVQAGGSLRLSCAASGSIFRGNTMGWYRQAPGKERELLAAINWTGGSTYYADSVKGRFTISRDNAKYTVYLQMNSLKPEDTAVYYCAARKFTSYYWGRSYGYWGQGTQVTVSS | high polyreactivity
2 | QVQLVESGGGLVQAGGSLRLSCAASGSIFRGYAMGWYRPAPGKERELVAAISSSGGTTYYADSVKGRFTISRDNAKNTVYLQMNSLKPEDTAVYYCNARHPYTGGRRYPYTRYDYWGQGTQVTVSS | high polyreactivity
3 | QVQLVESGGGLVQAGGSLRLSCAASGSIFRGYAMGWYRQAPGKEREFVASITWSAGRTRYADSVKGRFTISRDNAKNTVYLQMNSLKPEDTAVYYCAADHGSYWPRYDYWGQGTQVTVSS | high polyreactivity
4 | QVQLVESGGGLVQAGGSLRLSCAASGSIFRGYAMGWYRQAPGKERELVAGIRGSDGSTYYADSVKGRFTISRDNAKNTVYLQMNSLKPEDTAVYYCAADRRYLDRDKHRYGYWGQGTQVTVSS | low polyreactivity
5 | QVQLVESGGGLVQAGGSLRLSCAASGSIFRHNAMGGYRQSPGKERELVAAISRRASSTYYADSVKGRFTISRDNAKNTVYLQLNSLKPEDTAVYYCAVVPSTTYHAYDYWGQGTQVTVSS | high polyreactivity
6 | QVQLVESGGGLVQAGGSLRLSCAASGSIFRIYAMGWYRQAPGKERELVAAITGRGGSTYYADSVKGRFTISRDNAKNTVYLQMNSLKPEDTAVYYCAAEERYAYRYDYWGQGTQVTVSS | high polyreactivity
7 | QVQLVESGGGLVQAGGSLRLSCAASGSIFRIYAMGWYRQAPGKEREWVAAINSGGITNYADSVKGRFTISRDNAKNTVYLQMNSLKPEDTAVYYCNARQGVYGLYLRAYPYEYWGQATQVTVSS | low polyreactivity
8 | QVQLVESGGGLVQAGGSLRLSCAASGSIFRIYVMGWYRQAPGKERELVAAINSGGRTKYADSVKGRFTISRDNAKNTVYLLMNSLKPDDTAVYYCAAAFLYRKGVSSLYDSWGQGTQVTVSS | high polyreactivity
9 | QVQLVESGGGLVQAGGSLRLSCAASGSIFRIYVMGWYRQAPGKERELVAAITNDGSTSYADSVKGRFTISRDNAKNTVYLQMNSLKPEDTAVYYCNAYRRRATYNGDYWGQGTQVTVSS | high polyreactivity
10 | QVQLVESGGGLVQAGGSLRLSCAASGSIFRKNAMGWYREAPGKERELVATISGGGSTTYADSVKGRFTISRDNAKNTLYLQMNSLKPEDTAVYYCAARSTWFQIRYGYWGQGNQVTVSS | high polyreactivity
11 | QVQLVESGGGLVQAGGSLRLSCAASGSIFRKNAMGWYRPAPGKERELVATISGGGSTTYADSVKGRFTISRDNAKNTVYVHMNSLKPEDTAVYYCAARSTWFQLRYGYGGQGTQVTVSS | high polyreactivity
12 | QVQLVESGGGLVQAGGSLRLSCAASGSIFRKYAMGWYRQAPGKERELVAAITGSGGSTYYADSVKGRFTISRDNAKNTVYLQMNSLKPEDTAVYYCAAPFGWRPLPISKVTSDYWGQGTQVTVSS | high polyreactivity
13 | QVQLVESGGGLVQAGGSLRLSCAASGSIFRKYTMGWYRQAPGKERELVAAINTNGGSTYYADSVKGRFTISRDNAKNTVYLQMNSLKPEDTAVYYCRAWAQNQYNYWGQGTQVTVSS | high polyreactivity
14 | QVQLVESGGGLVQAGGSLRLSCAASGSIFRLNTMGWYRQAPGKERELVAAITRSGSTNYADSVKGRFTISRDNAMNTVYLQMNSLKPEDTAVYYCAARYPREAAYGFEYWGQGTQVTVSS | high polyreactivity
15 | QVQLVESGGGLVQAGGSLRLSCAASGSIFRLYAMGWYRQAPGKERELVAAITGRGTSTYYADSVKGRFTISRDNAKNTVYLQMNSLKPEDTAVYYCAARLFKNSGTTYDRYGYWGQGTQVTVSS | high polyreactivity
16 | QVQLVESGGGLVQAGGSLRLSCAASGSIFRNYAMGWSRPATGKERELVASIRYSGGRTNYADSVKGRFTISRDNAKNTVYLQMNSLKPEDTAVYYCAADPGYGWQRAYYYWGQGTQVTVSS | high polyreactivity
17 | QVQLVESGGGLVQAGGSLRLSCAASGSIFRNYAMGWYRKAPGKERELVADSTYYADSVKGRFTISRDNAKNTVYLQMNSLKPEDTAVYYCNTVYATRYDYWGQGTQVTVSS | high polyreactivity
18 | QVQLVESGGGLVQAGGSLRLSCAASGSIFRNYAMGWYRQAPGKERELVSAITRGGGSTYYADSVKARFTISRDNAKNTVYLQMNSLKPEETAVYYCAAVRVFQYKYDRFNYWGQGTQVTVSS | high polyreactivity
19 | QVQLVESGGGLVQAGGSLRLSCAASGSIFRPNALGWYRQAPGKERELVAAITWSGDSTYYADSVKGRFTISRDNAKNTVYLQINSLKPEDTAVYYCAVVSYKVTESGIRMYYWGQGTQVTVSS | low polyreactivity
20 | QVQLVESGGGLVQAGGSLRLSCAASGSIFRPNAMGWYRQAPGKERELVAAINTSDDSTYYADSVKGRFTISRDNAKNTVYLQMNSLKPEDTAVYYCASDGVVPGRFFWPAHEYDYWGQGTQVTVSS | low polyreactivity
21 | QVQLVESGGGLVQAGGSLRLSCAASGSIFRPNTMGWYRQAPGKERELVAAIRYRGGGTYYADSVKGRFTISRDNAKNTVYLQMNSLKPEDTAVYFCNAPRRNWSYDYWGQGTQVTVSS | high polyreactivity

Row | Sequence | polyreactivity (PSR sort gate)
22 | QVQLVESGGGLVQAGGSLRLSCAASGSIFRPYAMGWYRQAPGKERELVAAISVRGGRSYYADSVKGRFTISRDNAKNTVYLQMNSLKPEDTAVYYCNTVRQLGYTGYDYWGQGTQVTVSS | high polyreactivity
23 | QVQLVESGGGLVQAGGSLRLSCAASGSIFRPYAMGWYRQAPGKERELVAGISLRGGSTSYADSVKGRFTISRDNAKNTVYLQMNSLKPEDTAVYYCAASYWWKGDSTYGYWGQGTQVTVSS | high polyreactivity
24 | QVQLVESGGGLVQAGGSLRLSCAASGSIFRQNVMGWYRQAPGKERELVAAISRNGGSTYYADSVKGRFTISRDNAKNTVYFQMNSLKPEDTGVYYCAARGFRRYDYWGQGTQVTVSS | high polyreactivity
25 | QVQLVESGGGLVQAGGSLRLSCAASGSIFRQYAMGWYRQAPGKERELVAAIRSGGSTYYADSVKGRFTISRDNAKNTVYLQMNSLKPEDTAVYYCATRYHWSGYYYWGQGTQVTVSS | high polyreactivity
26 | QVQLVESGGGLVQAGGSLRLSCAASGSIFRRFAMGWYRQAPGKEREFVAAISRSSDNTSYADSVKGRFTISRDNAKNTVYLQMNSLKPEDTAVYYCNADASWYGYWYYYWGQGTQVTVSS | low polyreactivity
27 | QVQLVESGGGLVQAGGSLRLSCAASGSIFRRNAMGWYRQAPGKERELVAAISQSGGSTYYADSVKGRFTISRDNAKNTVYLQMNSLKPEDTAVYYCAAKAHTVGGYAYYHTSTYYWGQGTQVTVSS | high polyreactivity
28 | QVQLVESGGGLVQAGGSLRLSCAASGSIFRRNAMGWYRQAPGKERELVATITSDGSTDYADSVKGRFTISRDNAKNTVYLQMNSLKPEDTAVYYCAADRGVYDPGDYWGQGTQVTVSS | low polyreactivity
29 | QVQLVESGGGLVQAGGSLRLSCAASGSIFRRNAMGWYRQAPGKERELVAVITRSGGSTYYADSVKGRFTISRDNAKTTVDLQMNSLKPEDTAVYYCDASRSSTRSFDYWGQGTQVTVSS | high polyreactivity
30 | QVQLVESGGGLVQAGGSLRLSCAASGSIFRRNGMGWYRQAPGKERELVAAITYRGGNTNYADSVKGRFTISRDNAKNTVYFQMNRLKPEDTAVYYCAADTYGWWYAFEYWGQGTQVKVSS | low polyreactivity
31 | QVQLVESGGGLVQAGGSLRLSCAASGSIFRRNSMGWYRQAPGKERELVAAITRRGGSTYYADSVKGRFTISRDNAKNTVYLQMNSLKPEDTAVYYCAADPPDGFYYTWDYDYWGQGTQVTVSS | low polyreactivity
32 | QVQLVESGGGLVQAGGSLRLSCAASGSIFRRNTMGWYRQAPGKERELVAAITFTGGRTYYADSVKGRFTISRDYAKNTVYLQMNSLKPEDTAVYYCNRVTAYYPTKFDYWGQGTQVNVSS | high polyreactivity
33 | QVQLVESGGGLVQAGGSLRLSCAASGSIFRRTTQGGYRQAPGKERELVAAITYRGGSTYYADSVKGRFTISRDNAKNTVYFQMHSLKPEDTAVYYCARYHWYYPVSKSDSWGQGTQVTVSS | high polyreactivity
34 | QVQLVESGGGLVQAGGSLRLSCAASGSIFRRYAMGWYGQAPGKERELVAAISWSGGSTYYADSVKGRFTISRDNAKNTVYLQMNSLKPEDTAVYYCAARHRQQKLDYWGQGTQVTVSS | high polyreactivity
35 | QVQLVESGGGLVQAGGSLRLSCAASGSIFRRYAMGWYRQAPGKERELVAAISTRGGSTYYADSVKGRFTISRDNAKNTVYLQMNSLKPEDTAVYYCAVKGSGGPKYDYWGQGTQVTVAS | high polyreactivity
36 | QVQLVESGGGLVQAGGSLRLSCAASGSIFRRYTMGWYRQAPRKERELVAAISRVGNTNYADSVKGRFTISRDNAKNTVYLQLNSLKPEDTAVYYCAARGIGYRYTPGLNYWGQGTQVTVSS | high polyreactivity
37 | QVQLVESGGGLVQAGGSLRLSCAASGSIFRSYAMGWYRPAPGKERELVASITWRGGRTYYADSVKGRFTISRDNAKNTVYLQMNSLKPEDTAVYYCAVLWTPAGGYYFRYDYWGQGTQVTVSS | low polyreactivity
38 | QVQLVESGGGLVQAGGSLRLSCAASGSIFRSYAMGWYRQAPGKEREFVAAIRNSSGRTYYADSVKGRFTISRDNAKNTVYLQMNSLKPEDTAVYYCAARLPRTYQGGKLYRLQYSWGQGTQVTVSS | high polyreactivity
39 | QVQLVESGGGLVQAGGSLRLSCAASGSIFRSYAMGWYRQAPGKERELVAAITYSGGGTYYADSVKGRFTISRDNAKTTVYLQMNSLKPEDTAVYYCNAVGGIYDFDYWGQGTQVTVSS | high polyreactivity
40 | QVQLVESGGGLVQAGGSLRLSCAASGSIFRSYAMGWYRQAPGKERELVAGISYSGGSTYYADSVKGRFTISRDNAKNTVYLQMNSLKPEDTAVYYCATVSYYDRYDYDYWGQGTQVTVSS | low polyreactivity
41 | QVQLVESGGGLVQAGGSLRLSCAASGSIFRSYAMGWYRQAPGKERELVAGISYSGGSTYYADSVKGRFTISRDNAKNTVYLQMNSLKPEDTAVYYCNTRTGAFFLSKPYDYWGQGTQVTVSS | low polyreactivity
